Assay results taken from patent publication US11827699 (dated 2023).
Like-named read-outs stand apart in the source and are kept apart here.

T1: human FcγRIa (human, UniProt P12314)
T1 chain: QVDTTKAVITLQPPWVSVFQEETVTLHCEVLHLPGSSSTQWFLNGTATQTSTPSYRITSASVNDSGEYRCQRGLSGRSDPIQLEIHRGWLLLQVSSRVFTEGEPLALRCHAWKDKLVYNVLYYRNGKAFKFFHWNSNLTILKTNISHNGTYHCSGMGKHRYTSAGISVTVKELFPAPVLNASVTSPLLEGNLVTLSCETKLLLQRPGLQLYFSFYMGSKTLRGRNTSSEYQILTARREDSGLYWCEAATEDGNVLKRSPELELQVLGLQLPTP

T2: human FcγRIIa H131 (human, UniProt P12318)
T2 chain: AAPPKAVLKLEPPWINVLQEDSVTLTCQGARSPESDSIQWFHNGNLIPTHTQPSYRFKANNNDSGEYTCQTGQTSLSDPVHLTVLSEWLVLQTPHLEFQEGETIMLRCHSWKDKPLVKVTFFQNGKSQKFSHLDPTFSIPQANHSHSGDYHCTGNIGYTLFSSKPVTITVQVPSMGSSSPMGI

T3: human FcγRIIa R131 (human, UniProt P12318)
T3 chain: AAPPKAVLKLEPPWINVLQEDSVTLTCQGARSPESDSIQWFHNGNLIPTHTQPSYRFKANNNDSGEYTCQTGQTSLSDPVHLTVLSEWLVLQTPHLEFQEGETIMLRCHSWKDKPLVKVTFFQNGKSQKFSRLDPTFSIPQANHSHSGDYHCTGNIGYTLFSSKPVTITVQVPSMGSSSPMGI

T4: human FcγRIIb (human, UniProt P31994)
T4 chain: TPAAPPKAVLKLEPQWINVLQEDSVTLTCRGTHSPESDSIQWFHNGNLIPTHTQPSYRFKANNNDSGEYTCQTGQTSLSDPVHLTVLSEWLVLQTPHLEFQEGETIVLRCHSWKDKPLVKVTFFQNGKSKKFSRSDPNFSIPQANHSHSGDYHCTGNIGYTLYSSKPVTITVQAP


Legend:
Assay in all cases: SPR
human FcγRIa [1] = molecular target: T1, human FcγRIa
human FcγRIIIa V158 = human FcγRIIIa V158 (human, UniProt P08637)
human FcγRIIa H131 = molecular target: T2, human FcγRIIa H131
human FcγRIIa R131 = molecular target: T3, human FcγRIIa R131
human FcγRIa [2] = molecular target: T1, human FcγRIa
human FcγRIIb = molecular target: T4, human FcγRIIb

human FcγRIIIa V158, sequence (P08637 17-208 F176V): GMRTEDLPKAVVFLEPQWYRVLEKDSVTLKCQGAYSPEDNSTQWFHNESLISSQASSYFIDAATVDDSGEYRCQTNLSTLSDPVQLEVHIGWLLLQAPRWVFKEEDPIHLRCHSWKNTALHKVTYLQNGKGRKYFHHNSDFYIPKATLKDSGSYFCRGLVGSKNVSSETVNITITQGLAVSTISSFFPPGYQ

Row | Binder | Kd (human FcγRIa [1]) | Kd (human FcγRIIIa V158) | Kd (human FcγRIIa H131) | Kd (human FcγRIIa R131) | Kd (human FcγRIa [2]) | Kd (human FcγRIIb)
1 | IL6R-BP220 (antibody) chain 1: QVQLQESGPGLVKPSETLSLTCAVSGHSISHDHAWSWVRQPPGEGLEWIGFISYSGITNYNPSLQGRVTISRDNSKNTLYLQMNSLRAEDTAVYYCARSLARTTAMDYWGEGTLVTVSSASTKGPSVFPLAPSSKSTSGGTAALGCLVKDYFPEPVTVSWNSGALTSGVHTFPAVLQSSGLYSLSSVVTVPSSSLGTQTYICNVNHKPSNTKVDKKVEPKSCDKTHTCPPCPAPDLLGDDSVFLFPPKPKDTLMISRTPEVTCVVVDVSDEDGEVKFNWYVDGVEVHNAKTKPREEQDNSTYRVVSVLTVLHQDWLNGKEYKCKVSNKALPKPIEKTISKAKGQPREPQVYTLPPSRDELTKNQVSLTCLVKGFYPSDIAVEWESNGQPENNYKTTPPVLDSDGSFFLYSKLTVDKSRWQQGNVFSCSVMHEALHNHYTQESLSLSP chain 2: not shown | 20 nM |  |  |  |  | 
2 | IL6R-BP508 (antibody) chain 1: QVQLQESGPGLVKPSETLSLTCAVSGHSISHDHAWSWVRQPPGEGLEWIGFISYSGITNYNPSLQGRVTISRDNSKNTLYLQMNSLRAEDTAVYYCARSLARTTAMDYWGEGTLVTVSSASTKGPSVFPLAPSSKSTSGGTAALGCLVKDYFPEPVTVSWNSGALTSGVHTFPAVLQSSGLYSLSSVVTVPSSSLGTQTYICNVNHKPSNTKVDKKVEPKSCDKTHTCPPCPAPDLLGDDSVFLFPPKPKDTLMISRTPEVTCVVIDVAEEDGPVKFNWYVDGVEVHNAKTKPREEQDNSTYRVVSVLTVLHQDWLNGKEYKCKVSNKALPAPIEKTISKAKGQPREPQVYTLPPSRDELTKNQVSLTCLVKGFYPSDIAVEWESNGQPENNYKTTPPVLDSDGSFFLYSKLTVDKSRWQQGNVFSCSVMHEALHNHYTQESLSLSP chain 2: not shown |  | 61 µM | 20 µM | 540 nM | 1.4 nM | 21 nM
3 | IL6R-BP492 (antibody) chain 1: QVQLQESGPGLVKPSETLSLTCAVSGHSISHDHAWSWVRQPPGEGLEWIGFISYSGITNYNPSLQGRVTISRDNSKNTLYLQMNSLRAEDTAVYYCARSLARTTAMDYWGEGTLVTVSSASTKGPSVFPLAPSSKSTSGGTAALGCLVKDYFPEPVTVSWNSGALTSGVHTFPAVLQSSGLYSLSSVVTVPSSSLGTQTYICNVNHKPSNTKVDKKVEPKSCDKTHTCPPCPAPELLGGDSVFLFPPKPKDTLMISRTPEVTCVVIDVAEEDGEVKFNWYVDGVEVHNAKTKPREEQYNSTYRVVSVLTVLHQDWLNGKEYKCKVSNKALPAPIEKTISKAKGQPREPQVYTLPPSRDELTKNQVSLTCLVKGFYPSDIAVEWESNGQPENNYKTTPPVLDSDGSFFLYSKLTVDKSRWQQGNVFSCSVMHEALHNHYTQESLSLSP chain 2: not shown |  | 36 µM | 16 µM | 920 nM | 0.79 nM | 24 nM
4 | IL6R-BP500 (antibody) chain 1: QVQLQESGPGLVKPSETLSLTCAVSGHSISHDHAWSWVRQPPGEGLEWIGFISYSGITNYNPSLQGRVTISRDNSKNTLYLQMNSLRAEDTAVYYCARSLARTTAMDYWGEGTLVTVSSASTKGPSVFPLAPSSKSTSGGTAALGCLVKDYFPEPVTVSWNSGALTSGVHTFPAVLQSSGLYSLSSVVTVPSSSLGTQTYICNVNHKPSNTKVDKKVEPKSCDKTHTCPPCPAPELLGDDSVFLFPPKPKDTLMISRTPEVTCVVIDVAEEDGEVKFNWYVDGVEVHNAKTKPREEQDNSTYRVVSVLTVLHQDWLNGKEYKCKVSNKALPAPIEKTISKAKGQPREPQVYTLPPSRDELTKNQVSLTCLVKGFYPSDIAVEWESNGQPENNYKTTPPVLDSDGSFFLYSKLTVDKSRWQQGNVFSCSVMHEALHNHYTQESLSLSP chain 2: not shown |  | 39 µM | 25 µM | 720 nM | 2.3 nM | 24 nM
5 | IL6R-BP494 (antibody) chain 1: QVQLQESGPGLVKPSETLSLTCAVSGHSISHDHAWSWVRQPPGEGLEWIGFISYSGITNYNPSLQGRVTISRDNSKNTLYLQMNSLRAEDTAVYYCARSLARTTAMDYWGEGTLVTVSSASTKGPSVFPLAPSSKSTSGGTAALGCLVKDYFPEPVTVSWNSGALTSGVHTFPAVLQSSGLYSLSSVVTVPSSSLGTQTYICNVNHKPSNTKVDKKVEPKSCDKTHTCPPCPAPELLGDDSVFLFPPKPKDTLMISRTPEVTCVVVDVAEEDGEVKFNWYVDGVEVHNAKTKPREEQDNSTYRVVSVLTVLHQDWLNGKEYKCKVSNKALPRPIEKTISKAKGQPREPQVYTLPPSRDELTKNQVSLTCLVKGFYPSDIAVEWESNGQPENNYKTTPPVLDSDGSFFLYSKLTVDKSRWQQGNVFSCSVMHEALHNHYTQESLSLSP chain 2: not shown |  | 40 µM | 5.4 µM | 250 nM | 3.9 nM | 6.6 nM
6 | IL6R-BP269 (antibody) chain 1: QVQLQESGPGLVKPSETLSLTCAVSGHSISHDHAWSWVRQPPGEGLEWIGFISYSGITNYNPSLQGRVTISRDNSKNTLYLQMNSLRAEDTAVYYCARSLARTTAMDYWGEGTLVTVSSASTKGPSVFPLAPSSKSTSGGTAALGCLVKDYFPEPVTVSWNSGALTSGVHTFPAVLQSSGLYSLSSVVTVPSSSLGTQTYICNVNHKPSNTKVDKKVEPKSCDKTHTCPPCPAPELLGDDSVFLFPPKPKDTLMISRTPEVTCVVVDVSEEDGEVKFNWYVDGVEVHNAKTKPREEQDNSTYRVVSVLTVLHQDWLNGKEYKCKVSNKALPAPIEKTISKAKGQPREPQVYTLPPSRDELTKNQVSLTCLVKGFYPSDIAVEWESNGQPENNYKTTPPVLDSDGSFFLYSKLTVDKSRWQQGNVFSCSVMHEALHNHYTQESLSLSP chain 2: not shown |  | 140 µM | 72 µM | 2200 nM | 14 nM | 110 nM

The remaining binders from weak to strong by Kd (human FcγRIIIa V158), led by results:

Row | Kd (human FcγRIa [1]) | Kd (human FcγRIIIa V158) | Kd (human FcγRIIa H131) | Kd (human FcγRIIa R131) | Kd (human FcγRIa [2]) | Kd (human FcγRIIb) | Binder
7 |  | 28 µM | 0.96 µM | 85 nM | 2.1 nM | 4.1 nM | IL6R-BP497 (antibody) chain 1: QVQLQESGPGLVKPSETLSLTCAVSGHSISHDHAWSWVRQPPGEGLEWIGFISYSGITNYNPSLQGRVTISRDNSKNTLYLQMNSLRAEDTAVYYCARSLARTTAMDYWGEGTLVTVSSASTKGPSVFPLAPSSKSTSGGTAALGCLVKDYFPEPVTVSWNSGALTSGVHTFPAVLQSSGLYSLSSVVTVPSSSLGTQTYICNVNHKPSNTKVDKKVEPKSCDKTHTCPPCPAPDLLGDDSVFLFPPKPKDTLMISRTPEVTCVVIDVAEEDGEVKFNWYVDGVEVHNAKTKPREEQYNSTYRVVSVLTVLHQDWLNGKEYKCKVSNKGLPRPIEKTISKAKGQPREPQVYTLPPSRDELTKNQVSLTCLVKGFYPSDIAVEWESNGQPENNYKTTPPVLDSDGSFFLYSKLTVDKSRWQQGNVFSCSVMHEALHNHYTQESLSLSP chain 2: not shown
8 |  | 23 µM | 7.9 µM | 520 nM | 1.1 nM | 18 nM | IL6R-BP509 (antibody) chain 1: QVQLQESGPGLVKPSETLSLTCAVSGHSISHDHAWSWVRQPPGEGLEWIGFISYSGITNYNPSLQGRVTISRDNSKNTLYLQMNSLRAEDTAVYYCARSLARTTAMDYWGEGTLVTVSSASTKGPSVFPLAPSSKSTSGGTAALGCLVKDYFPEPVTVSWNSGALTSGVHTFPAVLQSSGLYSLSSVVTVPSSSLGTQTYICNVNHKPSNTKVDKKVEPKSCDKTHTCPPCPAPDLLGDDSVFLFPPKPKDTLMISRTPEVTCVVIDVAEEDGDVKFNWYVDGVEVHNAKTKPREEQDNSTYRVVSVLTVLHQDWLNGKEYKCKVSNKALPAPIEKTISKAKGQPREPQVYTLPPSRDELTKNQVSLTCLVKGFYPSDIAVEWESNGQPENNYKTTPPVLDSDGSFFLYSKLTVDKSRWQQGNVFSCSVMHEALHNHYTQESLSLSP chain 2: not shown
9 |  | 10 µM | 0.84 µM | 39 nM | 1.2 nM | 1.2 nM | IL6R-BP487 (antibody) chain 1: QVQLQESGPGLVKPSETLSLTCAVSGHSISHDHAWSWVRQPPGEGLEWIGFISYSGITNYNPSLQGRVTISRDNSKNTLYLQMNSLRAEDTAVYYCARSLARTTAMDYWGEGTLVTVSSASTKGPSVFPLAPSSKSTSGGTAALGCLVKDYFPEPVTVSWNSGALTSGVHTFPAVLQSSGLYSLSSVVTVPSSSLGTQTYICNVNHKPSNTKVDKKVEPKSCDKTHTCPPCPAPDLLGDDSVFLFPPKPKDTLMISRTPEVTCVVIDVAEEDGEVKFNWYVDGVEVHNAKTKPREEQYNSTYRVVSVLTVLHQDWLNGKEYKCKVSNKALPRPIEKTISKAKGQPREPQVYTLPPSRDELTKNQVSLTCLVKGFYPSDIAVEWESNGQPENNYKTTPMVLDSDGSFFLYSKLTVDKSRWQQGNVFSCSVMHEALHNHYTQESLSLSP chain 2: not shown
